Data from US20170190787A1 (INSERM INSTITUT NATIONAL DE LA SANT ET DE LA RECHERCHE M …, published 2017).

Columns and labels:
[1] = target: T1, EGFR fused to SNAP-tag, expressed on transfected HEK293T cells (UniProt P00533 25-1210, terbium cryptate donor fluorochrome (SNAP-Tb) covalently on the SNAP-tag); test: time resolved fluorescence (HTRF) on EGFR-ST transfected HEK293T cells; apparent affinity
T1 construct: whole, on cells; also called EGFR-ST; ErbB1-ST; not shown: SNAP-tag and FLAG tag (Cisbio plasmid)

[2] = target: T1, EGFR fused to SNAP-tag, expressed on …; test: HTRF on living cells; D4E in the presence of a large amount of monovalent E10 blocking the E10 epitope
[3] = target: T1, EGFR fused to SNAP-tag, expressed on …; test: HTRF on living cells; D4E in the presence of a large amount of monovalent D10 blocking the D10 epitope

B1: biparatopic single domain antibody D2E (D10 - 2x(G4S) linker - E10) (bispecific antibody)
chain: EVQLQESGGGLVQAGGSLRLSCAVSISRTIFSLYAMEWYRQPPGKQRDLVARIYRSGDTNYADSVKGRFTISRDNAKNTVYLQMNSLKPEDTGVYYCNSPAQDWPWGQGTQVTVSSAAAGGGGSGGGGSMAQVQLQESGGGLAQAGGSLRLSCAASGRTLSSYDMGWFRQAPGKEREFVTAINWGDLSTYYADSVKGRFTISRDNAKNTVYLQMNSLKPEDTAVYYCAARLRYTVSDPIFSRPDRYNYWGQGTQVTVSSAAAEQKLISEEDLNGAAHHHHHHGS
notes: also called bisdAb D2E
With B1 the Kd [1] was 6 nM.

B2: biparatopic single domain antibody D4E (D10 - 4x(G4S) linker - E10) (bispecific antibody)
chain: EVQLQESGGGLVQAGGSLRLSCAVSISRTIFSLYAMEWYRQPPGKQRDLVARIYRSGDTNYADSVKGRFTISRDNAKNTVYLQMNSLKPEDTGVYYCNSPAQDWPWGQGTQVTVSSAAAGGGGSGGGGSGGGGSGGGGSMAQVQLQESGGGLAQAGGSLRLSCAASGRTLSSYDMGWFRQAPGKEREFVTAINWGDLSTYYADSVKGRFTISRDNAKNTVYLQMNSLKPEDTAVYYCAARLRYTVSDPIFSRPDRYNYWGQGTQVTVSSAAAEQKLISEEDLNGAAHHHHHHGS
notes: also called bisdAb D4E
B2 showed a Kd [2] of 22 nM, a Kd [3] of 100 nM and a Kd [1] of 6 nM.

B3: biparatopic single domain antibody D6E (D10 - 6x(G4S) linker - E10) (bispecific antibody)
chain: EVQLQESGGGLVQAGGSLRLSCAVSISRTIFSLYAMEWYRQPPGKQRDLVARIYRSGDTNYADSVKGRFTISRDNAKNTVYLQMNSLKPEDTGVYYCNSPAQDWPWGQGTQVTVSSAAAGGGGSGGGGSGGGGSGGGGSGGGGSGGGGSMAQVQLQESGGGLAQAGGSLRLSCAASGRTLSSYDMGWFRQAPGKEREFVTAINWGDLSTYYADSVKGRFTISRDNAKNTVYLQMNSLKPEDTAVYYCAARLRYTVSDPIFSRPDRYNYWGQGTQVTVSSAAAEQKLISEEDLNGAAHHHHHHGS
notes: also called bisdAb D6E
B3 was tested, and the Kd [1] was 6 nM.
